Laboratory results published in article PMC12507909, “The reticulocyte restriction: invasion ligand RBP1a of Plasmodium vivax targets human TfR1, prohibitin-2, and basigin” (Frontiers in Cellular and Infection Microbiology, 2025).

Biological target: T1, transferrin receptor protein 1 (TfR1), recombinant extracellular domain Cys89-Phe760 (human, UniProt P02786 89-760)
T1 construct: Human transferrin receptor protein 1 (TfR1/CD71), extracellular domain, Cys89-Phe760; also called CD71; the 89–760 domain of TfR1; source: bought: SinoBiological
Assay: ELISA; Maxisorp plates coated with 5 μg/mL of each receptor candidate; serial dilutions of PvRBP1a_(158-650)LTID and LTID (48,000 pM to 187.5 pM and 4,000 pM to 1.28 pM) in blocking solution, 16 hours at 4°C; detected with a TurboID-specific antibody; one-site binding saturation model; triplicates
Conditions: both partners purified

T1 sequence (P02786 89-760): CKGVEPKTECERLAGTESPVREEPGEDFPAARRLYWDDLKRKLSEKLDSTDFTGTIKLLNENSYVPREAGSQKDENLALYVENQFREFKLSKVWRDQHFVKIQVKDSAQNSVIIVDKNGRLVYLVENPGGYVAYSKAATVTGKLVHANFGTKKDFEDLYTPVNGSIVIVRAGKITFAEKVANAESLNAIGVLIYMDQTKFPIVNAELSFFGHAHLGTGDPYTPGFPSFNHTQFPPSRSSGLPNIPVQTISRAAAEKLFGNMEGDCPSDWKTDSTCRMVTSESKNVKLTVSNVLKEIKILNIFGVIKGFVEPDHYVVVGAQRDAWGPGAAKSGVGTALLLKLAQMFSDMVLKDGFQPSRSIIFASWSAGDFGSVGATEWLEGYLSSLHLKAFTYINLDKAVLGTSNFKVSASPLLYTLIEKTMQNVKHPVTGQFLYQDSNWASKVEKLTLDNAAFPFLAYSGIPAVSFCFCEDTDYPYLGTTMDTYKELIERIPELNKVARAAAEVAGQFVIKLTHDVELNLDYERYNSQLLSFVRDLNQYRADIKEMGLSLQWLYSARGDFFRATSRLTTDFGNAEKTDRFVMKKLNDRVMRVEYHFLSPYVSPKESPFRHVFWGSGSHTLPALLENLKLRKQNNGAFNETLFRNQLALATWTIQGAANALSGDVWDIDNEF

B1: PvRBP1a_(158-650)LTID fusion protein (domain or fragment)
chain: YNSIVDMSEKLKENDKYNLVFDMEIDFVDLQFFNLILELIPKDSQYHTYYEETLKQQVTEYTNSLKTLMDSCISEKDQMIILEYEINYAKRKSIETETLGDKETKLSAVSQAYAKHLESYKGVLKPKLNDIKNNAFSVLKDSYCKDNCGEYVQKYNTMRKNFISSSDQYKMEAYMYIPKSINDYTVLDKILSESNELGIDIQETVNSLKLLGEEISEVSHLYVINSTLIDDAAKKLESINEEDESAEIDLQKFEDNSKALANNYCIFQYIKTLNEPIKKAYESKVIKSNELLSTIIDTLGKSATALQESTFNQEECNKIKTEAEKVKDDAEDIYEKNEQIYYEIPESEDETIADKINDLQYLIDQMNEYKDEIVNNSEFISNRYKNIYENLKETYETELNDIGQLENDTSKVNFYLMQIRKINTEKTKIDESLQTVEKFYKGILDLKEKIYELKIEFEKSVTEINRLQDGESARDLHEEQIKEILDKMAKKVH
notes: Synthetic gene optimised for E. coli, in pET-28a(+) between NcoI and XhoI; About 94 kDa; Details of expression and purification are in the Supplementary Data; also called PvRBP1a (158–650)-TurboID; PvRBP1a_(158-650)LITD
- Kd: 1.15 nM
